# Results taken from article PMC11306256.
# B1: GST-tagged recombinant Xenopus APE1, wild type [Xenopus laevis] / itself (parent)
# chain: MPKRGKKEEVCAAEPQEDGNEPEVKKGKKGAGKAAKEPEPVVLYEDAPDNVTSADGKKYTLKISSWNVDGIRAWIKKQGLNWVREEDPHIMCLQEIKCAEKLLPPDVKDMPEYPHKYWACPDEKEGYSGVAMLCKDKPLNVTYGIGIEEHDKEGRVITAEFDSFFVIAAYIPNSSRGLVRLDYRQRWDVDFRAYLKGLDSKKPLILCGDLNVAHQEIDLKNPKTNKKTPGFTPQERQGFGELLAEGYLDSFRELYPDKPSAYTFWTYMMNARAKNVGWRLDYFVLSKALRPALCDCKIRSKVMGSDHCPITLLMAI
# Variants of: B1
# Assay: sucrose density gradient sedimentation, quantified immunoblot (self-association / oligomerization)
# Conditions: with itself; fraction #3 (low-mass peak, co-sediments with 75kD Conalbumin); n = 3; parent: 17; read off a plot
row,Variant,percent of protein in gradient fraction
1,chain 1 K25A K26A K33A,23%

# Same assay, conditions: with itself; fraction #7 (high-mass oligomer peak of WT); n = 3; parent: 16; read off a plot
row,Variant,percent of protein in gradient fraction
1,chain 1 K25A K26A K33A,6%
